This note sets out measurements from publication doi:10.1101/2025.10.01.679806 (bioRxiv, 2025).

This data set concerns the molecule itself. In words: methyl-TROSY NMR.

B1: Bpa 45-153 (domain or fragment)
chain: AKVMRIGTMIKQLLEEVRAAPLDEASRNRLRDIHATSIRELEDGLAPELREELDRLTLPFNEDAVPSDAELRIAQAQLVGWLEGLFHGIQTALFAQQMAARAQLQQMRQ
As to B1, the “stoichiometry N” value was 4.
